Experimental data as given in patent EP4806514A2 (Lepu Biopharma Co., Ltd., dated 2025).

Columns and labels:
[1] = biological target: T1, human CDH3-his protein (Kactus, Cat. No. CDH-HM103) (human, UniProt P22223 108-654, limits assumed); assay: ELISA, antigen coated at 1 ug/mL
T1 construct: Bought; also called human CDH3 protein

[2] = biological target: T2, mouse CDH17-his (Kactus, Cat. No. CDH-MM117) (mouse, UniProt Q9R100 23-786, limits assumed); assay: ELISA, antigen coated at 1 ug/mL
T2 construct: Bought; also called mouse CDH17 protein
T2 sequence (looked up): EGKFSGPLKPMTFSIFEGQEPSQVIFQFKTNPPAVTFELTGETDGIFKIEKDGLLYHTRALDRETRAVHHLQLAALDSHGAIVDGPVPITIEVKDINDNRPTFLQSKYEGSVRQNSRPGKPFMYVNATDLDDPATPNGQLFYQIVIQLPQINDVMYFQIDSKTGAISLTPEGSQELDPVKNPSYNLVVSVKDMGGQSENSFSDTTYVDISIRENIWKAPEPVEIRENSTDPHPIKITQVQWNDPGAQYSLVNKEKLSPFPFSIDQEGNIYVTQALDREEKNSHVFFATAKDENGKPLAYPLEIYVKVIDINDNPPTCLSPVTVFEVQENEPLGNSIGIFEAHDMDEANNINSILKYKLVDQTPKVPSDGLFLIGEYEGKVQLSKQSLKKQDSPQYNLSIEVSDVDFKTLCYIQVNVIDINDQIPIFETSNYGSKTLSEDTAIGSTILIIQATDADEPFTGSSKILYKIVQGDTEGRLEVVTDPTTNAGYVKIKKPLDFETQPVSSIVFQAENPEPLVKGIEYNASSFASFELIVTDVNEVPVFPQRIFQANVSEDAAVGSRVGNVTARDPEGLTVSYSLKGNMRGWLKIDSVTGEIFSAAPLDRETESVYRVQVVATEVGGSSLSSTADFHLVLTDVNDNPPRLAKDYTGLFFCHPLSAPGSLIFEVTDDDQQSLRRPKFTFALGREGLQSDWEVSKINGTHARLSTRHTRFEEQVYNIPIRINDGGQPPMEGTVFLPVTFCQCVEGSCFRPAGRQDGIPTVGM

[3] = biological target: T3, rhesus CDH17-his (Kactus, Cat. No. CDH-RM117) (rhesus, UniProt A0A1D5R2B4 23-784); assay: ELISA, rhesus CDH17-his coated at 1 ug/mL
T3 construct: range 23-784; also called rhesus CDH17 protein
T3 sequence: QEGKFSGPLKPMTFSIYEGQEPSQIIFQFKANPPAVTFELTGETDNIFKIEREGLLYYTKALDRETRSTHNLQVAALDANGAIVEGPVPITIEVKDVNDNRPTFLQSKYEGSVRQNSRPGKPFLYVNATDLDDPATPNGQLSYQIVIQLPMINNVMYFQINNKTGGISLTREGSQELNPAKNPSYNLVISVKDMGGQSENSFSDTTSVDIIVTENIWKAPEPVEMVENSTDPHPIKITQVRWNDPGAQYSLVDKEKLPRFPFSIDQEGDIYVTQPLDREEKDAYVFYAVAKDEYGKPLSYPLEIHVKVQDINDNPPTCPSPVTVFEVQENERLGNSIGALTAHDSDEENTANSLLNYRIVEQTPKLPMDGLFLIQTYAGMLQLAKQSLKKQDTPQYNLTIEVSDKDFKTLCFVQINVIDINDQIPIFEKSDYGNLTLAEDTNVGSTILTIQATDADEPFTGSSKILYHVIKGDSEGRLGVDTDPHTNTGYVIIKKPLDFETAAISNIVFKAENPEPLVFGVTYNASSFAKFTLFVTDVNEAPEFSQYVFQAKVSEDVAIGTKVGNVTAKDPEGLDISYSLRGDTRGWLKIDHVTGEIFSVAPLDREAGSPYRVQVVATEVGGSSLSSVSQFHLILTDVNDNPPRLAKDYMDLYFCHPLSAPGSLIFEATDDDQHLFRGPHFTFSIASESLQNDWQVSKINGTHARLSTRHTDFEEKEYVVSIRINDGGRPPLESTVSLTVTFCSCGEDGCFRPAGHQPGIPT

[4] = biological target: T4, rhesus CDH17 overexpressed on HEK293 cells (HEK293-rhesus CDH17) (rhesus, UniProt A0A1D5R2B4 23-832); assay: flow cytometry, HEK293-rhesus CDH17 cells
T4 construct: whole, on cells
T4 sequence: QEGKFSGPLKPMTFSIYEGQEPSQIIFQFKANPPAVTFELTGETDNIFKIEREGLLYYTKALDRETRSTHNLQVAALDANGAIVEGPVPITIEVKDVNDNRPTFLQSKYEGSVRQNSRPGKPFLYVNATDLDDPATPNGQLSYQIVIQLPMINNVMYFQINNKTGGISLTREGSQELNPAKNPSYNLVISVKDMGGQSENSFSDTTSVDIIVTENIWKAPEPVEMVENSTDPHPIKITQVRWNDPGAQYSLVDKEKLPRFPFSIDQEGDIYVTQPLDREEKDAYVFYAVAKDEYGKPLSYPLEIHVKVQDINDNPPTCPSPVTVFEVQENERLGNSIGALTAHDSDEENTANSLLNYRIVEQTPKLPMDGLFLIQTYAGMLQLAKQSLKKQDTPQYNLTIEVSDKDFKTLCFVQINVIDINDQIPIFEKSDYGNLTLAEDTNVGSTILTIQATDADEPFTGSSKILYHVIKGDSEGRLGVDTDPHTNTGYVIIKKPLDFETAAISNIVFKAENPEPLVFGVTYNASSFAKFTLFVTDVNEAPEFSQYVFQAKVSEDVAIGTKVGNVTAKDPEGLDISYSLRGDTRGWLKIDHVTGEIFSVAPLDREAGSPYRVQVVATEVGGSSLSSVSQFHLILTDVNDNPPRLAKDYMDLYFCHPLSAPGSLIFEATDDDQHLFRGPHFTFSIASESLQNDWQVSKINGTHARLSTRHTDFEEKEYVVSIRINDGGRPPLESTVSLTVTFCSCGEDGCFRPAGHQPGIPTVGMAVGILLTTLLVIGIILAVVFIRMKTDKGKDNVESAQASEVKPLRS

T1 sequence (P22223 108-654 limits assumed): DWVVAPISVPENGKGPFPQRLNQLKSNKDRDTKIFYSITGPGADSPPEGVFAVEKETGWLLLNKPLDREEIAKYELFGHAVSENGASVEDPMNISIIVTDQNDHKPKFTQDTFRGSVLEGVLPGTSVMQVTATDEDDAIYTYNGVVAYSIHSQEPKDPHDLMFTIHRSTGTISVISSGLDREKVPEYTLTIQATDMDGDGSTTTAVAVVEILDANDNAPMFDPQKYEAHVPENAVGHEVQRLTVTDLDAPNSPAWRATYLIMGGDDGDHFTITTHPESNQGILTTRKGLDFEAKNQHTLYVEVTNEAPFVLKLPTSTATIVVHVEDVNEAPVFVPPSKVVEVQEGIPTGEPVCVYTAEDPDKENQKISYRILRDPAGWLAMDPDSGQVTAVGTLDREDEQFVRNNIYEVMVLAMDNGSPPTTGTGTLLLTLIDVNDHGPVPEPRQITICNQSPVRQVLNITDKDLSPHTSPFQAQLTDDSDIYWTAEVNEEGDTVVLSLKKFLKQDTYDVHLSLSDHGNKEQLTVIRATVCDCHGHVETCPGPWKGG

- binding result [1]: no binding (tested: titrated from 50 nM)
- binding result [2]: no binding (tested: titrated from 50 nM)
- EC50 [3]: 0.163 nM
- EC50 [4]: 0.225 nM
B1: 29H8D3-z12 (antibody, V domains shown)
VH: QVQLVQSGAEVKKPGASVKVSCKASGYTFTDHTIHWMRQRPGQGLEWIGYIYPRDGYTKYNEKFKDRATLTADTSTSTAYMELRSLRSDDTAVYYCARFYYGYWYFDVWGQGTTVTVSS
VL: DIVMTQSPLSLPVTPGEPASISCRSSKSLLRSNGNTYLYWFLQKPGQSPQVLIYRMSNLASGVPDRFSGSGSGTDFTLKISRVEAEDVGVYYCMQHLEYPFTFGQGTKLEIK
notes: Humanized, human IgG1 constant region; also called 29H8D3-z12 mAb
